Residue numbers refer to the chain shown, from its start.
Columns and labels:
Assay in all cases: SPR; KD relative to WT C2;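 also: biacore SPR at 37 °C, anti-C2 mAbs captured on an anti-human IgG chip, alanine or serine C2 surface mutants tested, KD from 1:1 fit compared with wild-type C2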
[1] = target: T1, human C2 A326S (human, UniProt P06681 21-752)
T1 sequence: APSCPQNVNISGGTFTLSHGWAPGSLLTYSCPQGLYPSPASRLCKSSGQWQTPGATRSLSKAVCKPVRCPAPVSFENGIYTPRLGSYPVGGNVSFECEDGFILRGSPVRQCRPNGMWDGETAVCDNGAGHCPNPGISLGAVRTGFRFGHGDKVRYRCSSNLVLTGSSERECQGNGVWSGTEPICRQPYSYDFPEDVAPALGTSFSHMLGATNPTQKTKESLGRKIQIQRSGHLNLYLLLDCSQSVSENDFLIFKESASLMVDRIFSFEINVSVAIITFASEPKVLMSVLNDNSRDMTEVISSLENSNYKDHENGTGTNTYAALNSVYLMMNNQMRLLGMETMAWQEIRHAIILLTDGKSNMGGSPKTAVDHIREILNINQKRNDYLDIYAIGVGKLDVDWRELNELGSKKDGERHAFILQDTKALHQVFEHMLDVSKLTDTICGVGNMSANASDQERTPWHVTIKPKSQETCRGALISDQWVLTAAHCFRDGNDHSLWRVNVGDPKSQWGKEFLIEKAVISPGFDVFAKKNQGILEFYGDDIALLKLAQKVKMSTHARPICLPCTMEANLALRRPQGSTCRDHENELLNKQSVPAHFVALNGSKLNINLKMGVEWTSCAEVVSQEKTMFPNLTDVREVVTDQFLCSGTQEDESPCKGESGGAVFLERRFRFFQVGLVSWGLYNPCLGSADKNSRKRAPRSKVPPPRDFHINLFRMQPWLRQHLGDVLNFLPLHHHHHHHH

[2] = target: T2, human C2 D454A (human, UniProt P06681 21-752)
T2 sequence: T1 sequence with S306A, D434A

[3] = target: T3, human C2 V465A (human, UniProt P06681 21-752)
T3 sequence: T1 sequence with S306A, V445A

[4] = target: T4, human C2 N424A (human, UniProt P06681 21-752)
T4 sequence: T1 sequence with S306A, N404A

B1: RF16-214 (antibody, V domains shown)
VH: EVQLLESGGGLVQPGGSLRLSCAASGFTFSWYQMMWVRQAPGKGLEWVSRIYPSGGGTAYADSVKGRFTISRDNSKNTLYLQMNSLRAEDTAVYYCARDAGYGDNWGQGTLVTVSS
VL: QSALTQPPSVSVSPGQTASITCSGDKLGEKYASWYQQKAGQSPVMVIYQDRKRPSGIPERFSGSNSGNTATLTISGTQAMDEADYYCQAWDTRAVVFGGGTKLTVLG
Fold diff [1]: 1 fold | Fold diff [2]: 4 fold | Fold diff [3]: 2 fold | Fold diff [4]: 1 fold

— patent US20220332804A1 (CSL INNOVATION, published 2022)
